In article PMC5662687 (2017):

Molecular target: LFA-1 I domain I domain (Homo sapiens, UniProt P20701)
Experiment: SPR

B1: ICAM-1 (protein)
chain: QTSVSPSKVILPRGGSVLVTCSTSCDQPKLLGIETPLPKKELLLPGNNRKVYELSNVQEDSQPMCYSNCPDGQSTAKTFLTVYWTPERVELAPLPSWQPVGKNLTLRCQVEGGAPRANLTVVLLRGEKELKREPAVGEPAEVTTTVLVRRDHHGANFSCRTELDLRPQGLELFENTSAPYQLQTFVLPATPPQLVSPRVLEVDTQGTVVCSLDGLFPVSEAQVHLALGDQRLNPTVTYGNDSFSAKASVSVTAEDEGTQRLTCAVILGNQSQETLQTVTIYSFPAPNVILTKPEVSEGTEVTVKCEAHPRAKVTLNGVPAQPLGPRAQLLLKATPEDNGRSFSCSATLEVAGQLIHKNQTRELRVLYGPRLDERDCPGNWTWPENSQQTPMCQAWGNPLPELKCLKDGTFPLPIGESVTVTRDLEGTYLCRARSTQGEVTRKVTVNVLSPRYE
Kd: 1500 µM
